Experimental data published in paper PMC3282809 (Diabetes, 2012).

Biological target: the molecule itself
Assay: cross-linking + co-IP

B1: endogenous sorcin (MIN6 β-cells) (natural protein, mouse (endogenous in MIN6), UniProt Q6P069 1-198, looked up)
chain: MAYPGHPGAGGGYYPGGYGGAPGGPAFPGQTQDPLYGYFAAVAGQDGQIDADELQRCLTQSGIAGGYKPFNLETCRLMVSMLDRDMSGTMGFNEFKELWAVLNGWRQHFISFDSDRSGTVDPQELQKALTTMGFRLSPQTVNSVAKRYSTSGKITFDDYIACCVKLRALTDSFRRRDSGQQGVVNFSYDDFIQCVMTV
stoichiometry N: 2
